Test results published in PMC11272584 (Nature Metabolism, 2024).
Where a chain is given by its changes, count along the chain named.

Key:
[1] = target: T1, GIPR I299V (human) (UniProt P48546)
T1 sequence: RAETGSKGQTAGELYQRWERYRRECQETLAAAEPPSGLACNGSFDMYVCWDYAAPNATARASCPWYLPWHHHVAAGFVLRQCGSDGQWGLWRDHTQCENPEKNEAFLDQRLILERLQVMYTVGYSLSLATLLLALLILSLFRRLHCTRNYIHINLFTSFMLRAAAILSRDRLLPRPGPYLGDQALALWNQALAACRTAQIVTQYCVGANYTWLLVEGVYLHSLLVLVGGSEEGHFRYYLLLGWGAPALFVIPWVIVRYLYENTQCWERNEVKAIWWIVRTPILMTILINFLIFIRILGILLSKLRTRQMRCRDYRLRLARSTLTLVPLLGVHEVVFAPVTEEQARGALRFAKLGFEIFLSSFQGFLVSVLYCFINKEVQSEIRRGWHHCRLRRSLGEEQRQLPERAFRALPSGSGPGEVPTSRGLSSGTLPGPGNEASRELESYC

[2] = target: T2, GIPR W90Lfs* (human) (UniProt P48546)
T2 sequence (P48546 whole entry, looked up): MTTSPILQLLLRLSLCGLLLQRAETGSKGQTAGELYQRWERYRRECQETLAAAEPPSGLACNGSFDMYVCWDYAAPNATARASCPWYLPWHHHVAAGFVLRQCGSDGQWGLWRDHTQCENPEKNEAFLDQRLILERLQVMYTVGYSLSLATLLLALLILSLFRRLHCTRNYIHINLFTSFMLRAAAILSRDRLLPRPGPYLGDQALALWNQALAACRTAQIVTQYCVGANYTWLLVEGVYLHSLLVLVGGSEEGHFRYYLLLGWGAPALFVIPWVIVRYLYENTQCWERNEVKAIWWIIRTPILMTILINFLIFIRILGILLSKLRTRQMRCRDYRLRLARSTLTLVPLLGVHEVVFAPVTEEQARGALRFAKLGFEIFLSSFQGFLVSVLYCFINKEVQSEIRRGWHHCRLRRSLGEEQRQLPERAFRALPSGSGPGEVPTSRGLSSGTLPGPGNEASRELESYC

[3] = target: GIPR L13F (human) (UniProt P48546)
[4] = target: T3, GIPR I221M (human) (UniProt P48546)
T3 sequence: T1 sequence with I200M, V278I

[5] = target: T4, GIPR P195R (human) (UniProt P48546)
T4 sequence: T1 sequence with P174R, V278I

[6] = target: T5, GIPR K397N (human) (UniProt P48546)
T5 sequence: T1 sequence with V278I, K376N

[7] = target: T6, GIPR R43G (human) (UniProt P48546)
T6 sequence: T1 sequence with R22G, V278I

β-arrestin 2 recruitment (BRET) on stimulation with GIP(1-42): logEC50 (Arrestin) (log M (inferred)) [1]: -9.01
β-arrestin 2 recruitment (BRET) on stimulation with GIP(1-42): logEC50 (Arrestin) (log M (inferred)) [2]: -10.8
β-arrestin 2 recruitment (BRET) on stimulation with GIP(1-42): logEC50 (Arrestin) (log M (inferred)) [3]: -8.75
β-arrestin 2 recruitment (BRET) on stimulation with GIP(1-42): logEC50 (Arrestin) (log M (inferred)) [4]: -9.38
β-arrestin 2 recruitment (BRET) on stimulation with GIP(1-42): logEC50 (Arrestin) (log M (inferred)) [5]: -9.04
β-arrestin 2 recruitment (BRET) on stimulation with GIP(1-42): logEC50 (Arrestin) (log M (inferred)) [6]: -8.9
β-arrestin 2 recruitment (BRET) on stimulation with GIP(1-42): logEC50 (Arrestin) (log M (inferred)) [7]: -9.1
Substance: β-arrestin 2 (Rluc8-Arrestin-3-Sp1) (from UniProt P32121 1-409) (natural protein)
